20 sequences from the DeepSol protein solubility set can be followed below.

A short description of this data set: soluble on expression in E. coli; label from the status in PepcDB or PDB records.
In the case of “MGSDKIHHHHHHMRNLNEKMKDIFERSVEDIKERNQNLLRPEHILLQILYDENEATKVLKDLNVNVEEVITELEDYIDSQYGIYYGFSDQVYVSKELSYILELARKEARLFKQKDIGPLHFLLGLLRDGSTHAARVLKKYGVDYEKVLQTVKEHEEEYAAEQSPLTAFATDLTKLAKEGKVGPIIGRDREIERVIEILMRKTKNNPILIGDPGVGKTAIVEGLAQRIVEGKVPDPLKDVRILMVDLGRMIAGTKYRGEFEERLKSFLDEVMKQKEKTILFIDEIHTLVGAGAAEGAMDAANMLKPALARGEIRVIGATHWMSTENT”, the “soluble on expression in E. coli” value is on record as “not soluble”.
With “MKQADQTYRGQFKDDLYDGAGQLELADGSRYQGLFAKGKPNGAGVRSDASGNQFSGHFVNGQLQGAGTYDSVDGEQYIGEFKDNRLEGRGRYENADGDVWIGEFKDGSLIGEGELLGSDGSHYKGEFADWRLSGQGSLQLADGSKYIGGFLNDAYHGHGRLILPSGKVESGTWANGVRVRDQNGKLLPDPLDLALLNQGRLLDEALVRVPRSAPPIQLYSLVVAGDGQQSVFLREADYVSRMLKVRFGARGQVTLVNHRDHMATRPMATRENLSRAAATLAERSGPEDLVFIYLTSHGSQDHQLVLDQPRLQLADLAADELATALAPLKDRDKVIVISACYSGGYIAPLKDERTLIMTAARADRVSFGCSEEADFTYFGDALFAEALNQTDDLKQAFELARASVAEREQREGFEASEPQLWAPPAVLEHWHQLRQQQAEEALRNATQANVSKQAKMPGTHLEHHHHHH” the entry was “soluble”; with “MVLEKIEPAQEEHEKYHSNVKELSHKFGIPNLVARQIVNSCAQCQQKGEAIHGQVNAELGTWQMDCTHLEGKIIIVAVHVASGFIEAEVIPQESGRQTALFLLKLASRWPITHLHTDNGANFTSQEVKMVAWWIGIEQSFGVPYNPQSQGVVEAMNHHLKNQISRIREQANTIETIVLMAVHCMNFKRRGGIGDMTPSERLINMITTEQE”, “soluble”.
As for “MGSDKIHHHHHHMAAELKTITVLGAGGKMGMRISANFQKSDYQVFYCENSPRAQEQVVAAGRELSIAEQVIPESDVVILAVPDIALKAVSGIVVPQMKSNAVLLTLDPAAAYANLIAKRDDIDYAVAHPCHPSVFLDRFTPEEHADAFGGVAAPQHVAASYETGSDEQKATLARVVKVMYGPVIDVHWVTVKQLAYLEPTLVETVACMVGTLMKEALDETINTIGVPEAAAKAMLYGHIQIALAVAFRSTNPFSDACMIAIEYGKENIIKPDWKKIFDEKELDLVIAKMLKIDAIER”, the entry is “not soluble”; as for “MSEPMSERERWQLELDKLQRGLQGDPFAFLGPQRDPGGEGGVLRAYLPGAQRVELLDEDGATLAELEQSDPGSGLFQRHLERLPPRYRLRVHWPDGVQESEDPYAFGPLLGELDLYLFAEGNHRQLASCLGAQLTRHEGVEGVRFAVWAPNAVRVSVVGDFNGWDGRRHPMRRRYPSGVWELFVPRLGEGELYKYELQGHDGLLPLKADPLALACETPPGTASKTCAALRHEWRDQDWLARRAERQGYAAP”, “not soluble”; as for “MAHHHHHHMLLAMCRYDCVGGCRERVCGGGGGGRGKGGEKKYRTEMGRASKDKRDIYYRKAKEEGYRARSAYKLLQLHEEFNILNRDEIQTGVVVLCAAPGSWSQLLARHLREEVGGRTEKQSLGAPRIVAVDLQEMMPIEGVQLLQGDITSEATAREIIRLLNIKEDTASVNDAYVDSEEDKSAIQTDKGGRSTARRPSLAPGGRNSYSDHTNSCEKKADLVVCDGAPDVTGMHELDEYLQHHLLLAALNITTFVLRCGGTFVTKIFRGPNTPFLVAKSEVFFRHVIIAKPRSSRNASMEAFMVCQDYQPPAGYRPSFDRPLTTTTRCFTPVAPLPPAFMHLQSEGRQITQKEKKGVEDQACMMESVIVPFLACGDLSGYDADMCYDRDSDVPVLPPVHPPRQAPYMTTACKNDEDSVVATNGAEDIMKRRRVE”, “not soluble”.
As for “MAHHHHHHMKIRTVLRKRIRLHGTNCPGFTCHHNRFSRLLKTWVVVLPPKQLAVYKNGVQLLLQLVTEHLTGDGDVLLQLRYQHMIAKEMLSGRHNTASFRVTYGFLTFDGVNPKVCAMNLLCGNPLIVKHSACLQCTHPSFVRVLNFCVTLKKRRTIVSKPQGRPTKKQLKVAPQHR”, the entry is “not soluble”; as for “MKVAIVHNSEEKSKQVTKQLTTLLEQNQIQIDNRQPELVISVGGDGTLLSAFHRFNHLLNEVSFLGVHTGHLGFYTDWRDYELKELVESLCIHREKSTSYPLLDVRIRFRDGKPDKHFLALNESTIKRGNRTMVGDVFIKDELFERFRGDGLSISTPTGSTAYNKSIGGAVLHPSINAFQLTEIASLNNRVFRTLGSPIVIAHTEWLEIKLQESDDYFVTVDQLDIYQENIASVCYRIADERIHFASYRHMHFWHRVKDAFIGEDLEHHHHHH”, “soluble”; as for “MGSDKIHHHHHHAQTKSLHQLQQEFVDLRCGMFIHFNMPTFFNEDWPDPDAAPELFNPVRMDCKQWAKAAKSANMTYGCLTTKHHSGFCIWDTKTTDYSVMSSPFKRDVVKEYADAFRAEGMKVMLYYSILDTHARLRPKCITPQHIEMIKEQLRELLTNYGEITALIIDGWDAPWSRISYDDVPFEDIYRLVKSIQPNCLVMDLNAAKYPAEALFYTDIKSYEQGAGQHISKDTNRLPALSCLPLQQNWFWKESFPTTPVKSPAQMVNDNIIPMGKSYCNFILNVAPNRDGLMDANALKALKEIGKLWKNDGRVATVPEADAPIISSNIAKYQPAEGTWSSDYAIMDFANDDDFGTCWNSNPEVKVPWYSVTFEREKSFNMVVITDRNNDRLQEYRLEYRAGGTWKPLYEGKAPTGLRVKIHRFDTVWGDAVRMTVLNSNGTTSIAEFGVYCERR”, “not soluble”.
With “MIYLFTGNMGTGKTSRVVSMILNNEDGLFKMKLEDGTEVDRPLYFCHIDGLDKRQFKAHELTEEQIMSAPLRDVIPEGAVLIVDEAHYTYPVRAAGRPVPPYIQELTELRHHGHTVILMTQHPSQLDIFVRNLVSKHVHLERKAIGMKQYYWYKCVTSLDNPAGVSGVEVASWKPPKEAFKYYKSASQHQ”, the “soluble on expression in E. coli” value is recorded as “not soluble”.
With “MGSDKIHHHHHHMNILITGASGFIGRQLVERLAPHHQLTLLTRSVQQTQRILGNQHHYLESLDALSDLNHIDAIVNLAGEPIVAKRWSKNQKQRICDSRWDITARLTQLIQQSSNPPEIMVSGSAVGYYGRHDDKLLDESSGAHVEFSHDICRKWEQEALNANTEHTRVCIIRIGIVLGKGGALEKMLPPFKLGLGGPIGHGRQGMSWIHVQDLISLIDFLLSQEHCKGVFNATAPNPVSNAVFTKALGKALNRPALITTPPLALRLAMGEMSELLTEGQFVYPKRALEAGFQFQFSDLDNALTDVLAK” the entry was “not soluble”; with “MGSDKIHHHHHHMSFLQEINLKLDVFEGPLDLLLHLIQKLEIDIYDIPITAVTEQYMSYIHAMQTLELEVAGEYLVMAATLMAIKSQMLLPKQELEIIDDEDFFEEEDPREALVAQLLEYRKFKYAATVLHEKEEERKLYYTKEPMDMDDYKEEDTTLPPNQINTIDLFLAFHAMLEKKKNRQPVETTVASDDVSIEEKISAISERMRQVQKGKAVSFDSFFDSYSKQEIVTTFMALLELMKTGAIYAEQENNYSEILLFNTETQQEDTTEVEETQ”, “not soluble”; with “MAHHHHHHMASLKERDTVAPAEIVAGVTASGPAGISAEELHKVLNSSEHASVVVVDVRNADEYASFHIPGSINKPFQELNFAQLADEVAAHTNHAAHMLVFVSAQSPDVDDLAAREYINEYEKSHAATPTKDSVRVLLGGLYTWSQIYSA”, “soluble”.
For “MKKGILIILLVLMVLSCGTSKKVTLPDKDIKIENETVFFKNEKYTGKINLKDKNSVSGFITFKDGHLDGPTELKNDKKQMYTKFNIVNNQFEGETVVKNADQGINMTVNYNNGKIVKLLGDYSKTVKYDITFVDGLANGWFESEGEKFVFSDGVLTLEEDGITTEVKYYVNQETGDMGMEFFINGKSAGRDEKPNKVFGMEYFRIIAISSILEENSKGKDK”, the “soluble on expression in E. coli” value is “not soluble”.
Turning to “MSLRSAKHHFGAATSRGTRPSNEDTYQAGVIDIPAFAKRPPASLTIRNRSARVAGLRENRGADSASGDPQVFYFGIFDGHGGSECSTFMKETLHEYIQDTAAEFELQSSLRKAGENSASPDAESELPIRQGSNVARVQRLEKSLVQSWRNLVGGYFRRFVPPNFSHLAKHTAEESSSVPENNKGVTIEEILEYAFLRADLDFVSAQASREDDELSNVCRPLYQDDILYGPSRSQSLNIAGLRRFKGGSTASTVMISTPTPAPFWHPASPSSLLVSHVGDTRMLLCSTVTGEAIPLTSNHHPSSPIEANRLRRYAATFVTDSFGEERISGLANTRAFGDVQSKRIGVSAEPELRRFEIAPAEYSFLVLMSDGISEALTDQEVVDIIKEAKTPDEGARHVVNFATEVTRTGDNATCLVVRLGGWEREGHHHHHH”, the “soluble on expression in E. coli” value is reported as “not soluble”.
Turning to “YGAWAAQELQAKLAEIGAPIQGNREELVERLQSYTRQTGIVLNRP”, the “soluble on expression in E. coli” value is given as “soluble”.
As for “MHHHHHHAMGTKKSAAEASKKPRQKRTATKQYNVTQAFGRRGPEQTQGNFGDQDLIRQGTDYKHWPQIAQFAPSASAFFGMSRIGMEVTPSGTWLTYHGAIKLDDKDPQFKDNVILLNKHIDAYKTFP”, the entry is “soluble”.
With “MKVRAQVPTVKNATNFNMVADSKTAVGSTLENLKAAIAGETGAHAKYTAFAKAAREQGYEQIARLFEATAAAELIHIGLEYALVAEMEPGYEKPTVAAPSAYSCDLNLISGANGEIYETSDMYPAFIRKAQEEGNSKAVHVFTRAKLAESVHAERYLAAYNDIDAPDDDKFHLCPICGYIHKGEDFEKCPICFRPKDTFTAY”, the “soluble on expression in E. coli” value is listed as “soluble”.
With “MGSDKIHHHHHHMSPKVFVSHASEDKDRFVLQFAERLRQKGIDAWLDKWEMLPGDSLVDKIFEEGIKEAKAVIVVLSKFSVEKPWVREELNAAFVKRINNGSKLIPIVIDDCEVPEALKSTLWEPIADLSAYDKSFDRIVASIYGANDRPPIGPQPEYVQSFVQAIGNLNNIDSLVLRFSCEEVLKTGNAFVNPERVFLKDDKPILPEDELKDSLEILDGGGYIKLMRTLGGGFFPYQITTYGFDVYANASIPDYQGKIAAVVSAIVNEKLMSNAKIQERLKENKIIVDHILNVLENKGHIKQSKMIGGLSEIFNVSPSLKRALSGG” the entry was “not soluble”.
As to “MRATAIKIFSLSSALALLLHGCLSINLKQMLPEIRTYDLNASSFEITQCAKPLTEVRLISILSADLFNTKEIVFKAKDGQITHGKHQKWIDLPRNMLKTMFMQEAQKACLGVALPPYGAGAPTYAVRFTILSFSLLEKENSTYRAEFALGYDISVKGDSHSGVIIKHENISSLENKTTKTSKNGNQDFQESAIQSLQHVSVQAIQEAVSLIKKAIEAQSVSPLKK”, the “soluble on expression in E. coli” value is “not soluble”.
